pKd: −log10 of the molar value.
Columns and labels:
Test in all cases: ELASA
Details in all cases: ELASA: VLPs 3 ug/ml coated, blocked with 5% skim milk in PBST plus unrelated DNA, 1 uM biotinylated aptamer (10 nM-2 uM for Kd), 1 h at RT, PBST washes
[1] = system: GII.1 VLP, major capsid protein (Human norovirus GII.1)
[2] = system: GII.3 VLP, major capsid protein (Human norovirus GII.3)
[3] = system: GI.7 VLP, major capsid protein (Human norovirus GI.7)
[4] = system: GII.12 VLP, major capsid protein (Human norovirus GII.12)
[5] = molecular target: T1, GII.2 (SMV) VLP, major capsid protein (Human norovirus GII.2 (Snow Mountain virus)) (UniProt K7X601)
T1 sequence: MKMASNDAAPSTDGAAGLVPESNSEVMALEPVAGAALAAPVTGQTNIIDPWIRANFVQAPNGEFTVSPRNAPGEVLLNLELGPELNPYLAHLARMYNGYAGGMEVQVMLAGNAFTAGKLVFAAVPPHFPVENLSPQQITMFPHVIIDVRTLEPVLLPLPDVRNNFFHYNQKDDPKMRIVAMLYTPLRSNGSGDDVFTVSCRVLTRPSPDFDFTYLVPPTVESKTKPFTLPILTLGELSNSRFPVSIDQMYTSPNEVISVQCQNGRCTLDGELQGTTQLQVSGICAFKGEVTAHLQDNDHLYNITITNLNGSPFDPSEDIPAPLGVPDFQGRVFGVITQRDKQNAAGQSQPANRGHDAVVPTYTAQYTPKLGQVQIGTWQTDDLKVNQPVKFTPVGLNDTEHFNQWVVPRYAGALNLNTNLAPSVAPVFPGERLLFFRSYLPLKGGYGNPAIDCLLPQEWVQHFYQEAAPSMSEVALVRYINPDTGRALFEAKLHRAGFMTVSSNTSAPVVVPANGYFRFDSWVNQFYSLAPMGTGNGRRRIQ

[6] = system: GII.17 VLP, major capsid protein (Human norovirus GII.17)
[7] = system: GI.6 VLP, major capsid protein (Human norovirus GI.6)
[8] = system: GI.8 VLP, major capsid protein (Human norovirus GI.8)
[9] = system: GII.4 (Houston) VLP, major capsid protein (Human norovirus GII.4 (Houston))
[10] = system: GII.4 (Grimsby) VLP, major capsid protein (Human norovirus GII.4 (Grimsby virus))
[11] = system: GII.6 VLP, major capsid protein (Human norovirus GII.6)
[12] = system: GII.7 VLP, major capsid protein (Human norovirus GII.7)
[13] = system: GI.4 VLP, major capsid protein (Human norovirus GI.4)

Row | Sequence | binding signal [1] | binding signal [2] | binding signal [3] | binding signal [4] | pKd [5] | binding signal [5] | binding signal [6] | binding signal [7] | binding signal [8] | binding signal [9] | binding signal [10] | binding signal [11] | binding signal [12] | binding signal [13]
1 | AGTATACGTATTACCTGCAGCCCATGTTTTGTAGGTGTAATAGGTCATGTTAGGGTTTCTGCGATATCTCGGAGATCTTGC [SMV-21] | 8.6 T/N ratio | 11.8 T/N ratio | 8.1 T/N ratio | 6.6 T/N ratio | 7.00 | 18.1 T/N ratio | 12.2 T/N ratio | 3.8 T/N ratio | 4.6 T/N ratio | 11.3 T/N ratio | 6.4 T/N ratio | 3 T/N ratio | 13.5 T/N ratio | 4.3 T/N ratio
2 | AGTATACGTATTACCTGCAGCCATCTGTGTGAAGACTATATGGCGCTCACATATTTCTTTCCGATATCTCGGAGATCTTGC [SMV-25] | 9.4 T/N ratio | 5.4 T/N ratio | 3.5 T/N ratio | 1.9 T/N ratio | 6.63 | 12.4 T/N ratio | 2 T/N ratio | 2.4 T/N ratio | 6.2 T/N ratio | 11 T/N ratio | 10.4 T/N ratio | 7.3 T/N ratio | 9.1 T/N ratio | 5.6 T/N ratio
3 | AGTATACGTATTACCTGCAGCTGACCGAGTGTCTGGTCATTTTCGATGTCTGTTGTTAGGCCGATATCTCGGAGATCTTGC [SMV-26] | 2.1 T/N ratio | 2.4 T/N ratio | 1.8 T/N ratio | 2.4 T/N ratio | 6.55 | 4.1 T/N ratio | 1.3 T/N ratio | 1.5 T/N ratio | 1.2 T/N ratio | 2.8 T/N ratio | 3.2 T/N ratio | 2.8 T/N ratio | 2.8 T/N ratio | 1.1 T/N ratio
4 | AGTATACGTATTACCTGCAGCCACCAGTGTGTTGAGGTTTGAGCACACTGATAGAGTGTCACGATATCTCGGAGATCTTGC [SMV-19] | 7.1 T/N ratio | 1.7 T/N ratio | 10.3 T/N ratio | 1.5 T/N ratio | 6.72 | 12.9 T/N ratio | 3 T/N ratio | 3.7 T/N ratio | 1.7 T/N ratio | 12.5 T/N ratio | 9.6 T/N ratio | 1.8 T/N ratio | 4 T/N ratio | 1.7 T/N ratio

— publication PMC4156411
